# T1: C-reactive protein (CRP) (UniProt P02741 19-224)
# T1 sequence: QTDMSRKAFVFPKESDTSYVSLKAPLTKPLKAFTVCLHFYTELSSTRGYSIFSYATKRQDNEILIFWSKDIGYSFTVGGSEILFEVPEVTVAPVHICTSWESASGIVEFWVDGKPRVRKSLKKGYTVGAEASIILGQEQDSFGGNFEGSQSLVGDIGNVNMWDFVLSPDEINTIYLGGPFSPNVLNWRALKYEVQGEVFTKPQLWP
# T2: MB (UniProt P02144 2-154)
# T2 sequence: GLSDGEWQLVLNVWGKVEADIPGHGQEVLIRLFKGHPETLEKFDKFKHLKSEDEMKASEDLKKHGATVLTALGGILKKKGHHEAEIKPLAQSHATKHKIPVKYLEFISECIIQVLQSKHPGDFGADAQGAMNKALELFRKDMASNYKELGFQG
# Tests used:
# C-reactive protein (CRP) = molecular target: T1, C-reactive protein (CRP); experiment: fluorescent strand-displacement aptasensor (RNase H recycling, GO quenching); CRP 10 ng/mL; P1 strand released from Ap/P1; 20 mM Tris-HCl, 40 mM KCl, 8 mM MgCl2, 1 mM DTT, pH 7.8; 20 min Ap/P1 + CRP incubation; temperature not stated; settings: chain copies: 5; label: none (5-FAM is on the reporter RNA S3, not on Ap or P1); partial duplex: P1 (23 nt) pairs with Ap nt 48-70; 47 nt 5' and 2 nt 3' single-stranded Ap overhangs
# BNP = BNP (UniProt P16860 103-134); experiment: fluorescent strand-displacement aptasensor (RNase H recycling, GO quenching); 50 ng/mL; negligible signal; 20 mM Tris-HCl, 40 mM KCl, 8 mM MgCl2, 1 mM DTT, pH 7.8; 20 min Ap/P1 + CRP incubation; temperature not stated; settings: label: none (5-FAM is on the reporter RNA S3, not on Ap or P1); partial duplex: P1 (23 nt) pairs with Ap nt 48-70; 47 nt 5' and 2 nt 3' single-stranded Ap overhangs
# Chain of BNP (P16860 103-134): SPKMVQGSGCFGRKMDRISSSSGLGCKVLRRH
# MB = molecular target: T2, MB; experiment: as above; settings: label: none (5-FAM is on the reporter RNA S3, not on Ap or P1); partial duplex: P1 (23 nt) pairs with Ap nt 48-70; 47 nt 5' and 2 nt 3' single-stranded Ap overhangs
binder,measurement,setting,value
CRP aptamer (Ap) presented as Ap/P1 complex (mixed) DNA 1: GGCAGGAAGACAAACATATAATTGAGATCGTTTGATGACTTTGTAAGAGTGTGGAATGGTCTGTGGTGCTGT DNA 2: AGCACCACAGACCATTCCACACT,binding result,C-reactive protein (CRP),binds
same,binding result,BNP,no binding
same,binding result,MB,no binding

# From paper PMC9063470, “Ultrasensitive fluorescent aptasensor for CRP detection based on the RNase H assisted DNA recycling signal amplification strategy”
